Test results taken from paper PMC9062432.

Biological target: AphC, extradiol dioxygenase from Rhodococcus jostii RHA1 (Rhodococcus jostii RHA1)
Test: crystal structure

Q: “AphC, extradiol dioxygenase from Rhodococcus jostii RHA1 (enzyme)” was tested. Which stoichiometry N did it give?
A: Its stoichiometry N is 4.
